Measurements: patent US20240116985A1 (published 2024)
Starred links: 1 amine or outer side, 2 acyl side, 3 side chain; linkers in the order of their positions; H or OH if unused. Positions of bridges follow the written chain, without caps; N, C: chain ends. Non-standard residues stand in square brackets, D forms with d. Primed or numbered codes have the meaning given here. PyrS2″ = (S)-3-amino-1-((pent-4-en-1-yloxy)carbonyl)pyrrolidine-3-carboxylic acid (stapling residue), C=CCCCOC(=O)N1CC[C@@](N[*:1])(C(=O)[*:2])C1; B5(4) = 2,2-bis(4-pentenyl)glycine = 2-amino-2-(pent-4-en-1-yl)hept-6-enoic acid (stitching residue), C=CCCCC(CCCC=C)(N[*:1])C(=O)[*:2]; B5(19) = 2-amino-2-(pent-4-en-1-yl)hept-6-enoic acid (bis(4-pentenyl)glycine), C=CCCCC(CCCC=C)(N[*:1])C(=O)[*:2]; Phe(4-CN) = N#Cc1ccc(C[C@H](N)C(=O)O)cc1; Phe(2-Cl) = N[C@@H](Cc1ccccc1Cl)C(=O)O; Bta = N[C@@H](Cc1csc2ccccc12)C(=O)O; αAllylPro = C=CC[C@@]1(C(=O)O)CCCN1; S8 = C=CCCCCCC[C@](C)(N)C(=O)O

T1: beta-catenin (Homo sapiens (Human), UniProt P35222 1-781)
T1 construct: The FP protocol says full-length beta-Catenin (Uniprot ID P35222); also called full-length beta-Catenin; bCat
T1 sequence: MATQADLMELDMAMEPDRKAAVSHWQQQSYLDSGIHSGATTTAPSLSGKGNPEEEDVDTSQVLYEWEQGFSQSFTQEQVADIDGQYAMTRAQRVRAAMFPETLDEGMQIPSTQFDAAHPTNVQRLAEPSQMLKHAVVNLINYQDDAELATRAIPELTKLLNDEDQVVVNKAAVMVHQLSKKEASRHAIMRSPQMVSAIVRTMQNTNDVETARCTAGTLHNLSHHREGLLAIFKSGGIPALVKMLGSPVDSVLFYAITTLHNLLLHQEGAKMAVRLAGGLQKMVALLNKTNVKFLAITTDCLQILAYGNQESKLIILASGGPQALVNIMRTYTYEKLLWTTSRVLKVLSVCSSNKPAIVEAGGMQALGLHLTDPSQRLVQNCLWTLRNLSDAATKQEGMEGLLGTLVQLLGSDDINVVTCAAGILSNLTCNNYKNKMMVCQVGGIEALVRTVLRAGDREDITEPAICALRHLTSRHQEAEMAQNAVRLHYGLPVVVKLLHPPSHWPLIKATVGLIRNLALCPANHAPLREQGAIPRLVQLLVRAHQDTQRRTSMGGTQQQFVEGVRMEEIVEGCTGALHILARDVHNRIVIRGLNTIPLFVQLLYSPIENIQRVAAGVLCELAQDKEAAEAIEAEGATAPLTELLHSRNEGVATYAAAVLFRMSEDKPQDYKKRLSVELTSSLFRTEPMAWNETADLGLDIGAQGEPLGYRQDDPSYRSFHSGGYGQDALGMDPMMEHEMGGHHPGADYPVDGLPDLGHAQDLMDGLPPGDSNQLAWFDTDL

T2: full-length beta-Catenin (Uniprot ID P35222) (Homo sapiens (Human), UniProt P35222 1-781)
T2 construct: also called bCat; B-Catenin
T2 sequence: T1 sequence

T3: full-length beta-Catenin (Uniprot ID P35222) (Homo sapiens (Human), UniProt P35222 1-781)
T3 construct: Tags are not described; Also used here as the target of the DLD1 TCF reporter read-out (endogenous beta-catenin in DLD1 cells); also called bCat; B-Catenin
T3 sequence: T1 sequence

T4: full-length beta-Catenin (Uniprot ID P35222) (Homo sapiens (Human), UniProt P35222 2-781)
T4 construct: The assay protocols say only 'full-length'; No tag is stated, although the AlphaScreen kit is a Histidine (Nickel Chelate) kit; also called B-Catenin; bCat
T4 sequence: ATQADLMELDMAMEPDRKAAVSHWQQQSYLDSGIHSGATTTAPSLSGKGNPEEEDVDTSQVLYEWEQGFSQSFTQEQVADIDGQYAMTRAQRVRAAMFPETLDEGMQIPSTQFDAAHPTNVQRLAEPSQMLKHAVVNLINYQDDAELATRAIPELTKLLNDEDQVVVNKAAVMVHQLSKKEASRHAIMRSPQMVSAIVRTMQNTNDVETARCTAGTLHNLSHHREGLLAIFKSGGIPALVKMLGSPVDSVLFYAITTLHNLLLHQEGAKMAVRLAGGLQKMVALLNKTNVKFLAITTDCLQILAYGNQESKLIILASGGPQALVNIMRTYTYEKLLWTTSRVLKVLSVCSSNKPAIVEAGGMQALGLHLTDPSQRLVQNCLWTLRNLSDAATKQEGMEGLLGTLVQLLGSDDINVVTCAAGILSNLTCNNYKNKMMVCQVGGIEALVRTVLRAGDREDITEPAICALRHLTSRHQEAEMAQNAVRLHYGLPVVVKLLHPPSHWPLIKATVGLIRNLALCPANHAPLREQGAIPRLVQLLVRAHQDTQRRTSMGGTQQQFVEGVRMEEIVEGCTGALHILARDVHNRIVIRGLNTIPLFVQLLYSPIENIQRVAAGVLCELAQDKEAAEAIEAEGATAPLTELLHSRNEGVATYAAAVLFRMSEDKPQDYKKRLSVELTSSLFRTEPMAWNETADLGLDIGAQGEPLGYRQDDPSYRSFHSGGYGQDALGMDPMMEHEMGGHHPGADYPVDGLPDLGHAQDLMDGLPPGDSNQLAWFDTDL

B1: I-355 (peptide)
peptide: XDAXDDAAFVXAWQ
modifications: not fully specified; N-terminal Ac; PL3 at 1, B5 at 4, S8 at 11 (staples 1-4 and 4-11 by olefin metathesis); C-terminal NH2
notes: Stapled peptide; also called Ac-PL3-Asp-Ala-B5-Asp-Asp-Ala-Ala-Phe-Val-S8-Ala-Trp-Gln-NH2
B2: I-354 (peptide)
peptide: XDAXDDAAAVXFWQ
modifications: not fully specified; N-terminal Ac; PL3 at 1, B5 at 4, S8 at 11 (staples 1-4 and 4-11 by olefin metathesis); C-terminal NH2
notes: Stapled peptide; also called Ac-PL3-Asp-Ala-B5-Asp-Asp-Ala-Ala-Ala-Val-S8-Phe-Trp-Gln-NH2
B3: I-356 (peptide)
peptide: XDAXDDAAFVXAWQ
modifications: not fully specified; N-terminal Ac; PL3 at 1, B5 at 4, S8 at 11 (staples 1-4 and 4-11 by olefin metathesis); C-terminal NH2
notes: as for B1
B4: I-358 (peptide)
peptide: XDAXDDAAFVXFAQ
modifications: not fully specified; N-terminal Ac; PL3 at 1, B5 at 4, S8 at 11 (staples 1-4 and 4-11 by olefin metathesis); C-terminal NH2
notes: Stapled peptide; also called Ac-PL3-Asp-Ala-B5-Asp-Asp-Ala-Ala-Phe-Val-S8-Phe-Ala-Gln-NH2
B5: I-359 (peptide)
peptide: Ac-[αAllylPro]DA[B5(19)]DDAAFV[S8][Phe(4-CN)][Bta]Q-NH2
modifications: staple 1-4, 4-11
notes: Stapled peptide; also called Ac-PL3-Asp-Ala-B5-Asp-Asp-Ala-Ala-Phe-Val-S8-4CNF-BztA-Gln-NH2
B6: I-357 (peptide)
peptide: XDAXDDAAFVXFAQ
modifications: not fully specified; N-terminal Ac; PL3 at 1, B5 at 4, S8 at 11 (staples 1-4 and 4-11 by olefin metathesis); C-terminal NH2
notes: as for B4
B7: I-1049 (peptide)
peptide: Ac-[αAllylPro]DF[B5(4)]DDAAFT[PyrS2″][Phe(2-Cl)][Bta]S-NH2
modifications: staple 1-4, 4-11
notes: also called Ac-PL3-Asp-Phe-B5-Asp-Asp-Ala-Ala-Phe-Thr-PyrS2-2C1F-BztA-Ser-NH2
B8: I-354 (peptide)
peptide: XDAXDDAAAVXFWQ
modifications: not fully specified; N-terminal Ac; C-terminal NH2; PL3 at 1, B5 at 4, S8 at 11 (stapled 1-4 and 4-11)
notes: Stapled peptide composition; Later-eluting isomer composition; also called Ac-PL3-Asp-Ala-B5-Asp-Asp-Ala-Ala-Ala-Val-S8-Phe-Trp-Gln-NH2
B9: I-359 (peptide)
peptide: Ac-[αAllylPro]DA[B5(19)]DDAAFV[S8][Phe(4-CN)][Bta]Q-NH2
modifications: staple 1-4, 4-11
notes: Stapled peptide composition; also called Ac-PL3-Asp-Ala-B5-Asp-Asp-Ala-Ala-Phe-Val-S8-4CNF-BztA-Gln-NH2
B10: I-355 (peptide)
peptide: XDAXDDAAFVXAWQ
modifications: not fully specified; N-terminal Ac; C-terminal NH2; PL3 at 1, B5 at 4, S8 at 11 (stapled 1-4 and 4-11)
notes: Stapled peptide composition; Earlier-eluting isomer composition; also called Ac-PL3-Asp-Ala-B5-Asp-Asp-Ala-Ala-Phe-Val-S8-Ala-Trp-Gln-NH2
B11: I-356 (peptide)
peptide: XDAXDDAAFVXAWQ
modifications: not fully specified; N-terminal Ac; C-terminal NH2; PL3 at 1, B5 at 4, S8 at 11 (stapled 1-4 and 4-11)
notes: Stapled peptide composition; Later-eluting isomer composition; also called Ac-PL3-Asp-Ala-B5-Asp-Asp-Ala-Ala-Phe-Val-S8-Ala-Trp-Gln-NH2
B12: I-358 (peptide)
peptide: XDAXDDAAFVXFAQ
modifications: not fully specified; N-terminal Ac; C-terminal NH2; PL3 at 1, B5 at 4, S8 at 11 (stapled 1-4 and 4-11)
notes: Stapled peptide composition; Later-eluting isomer composition; also called Ac-PL3-Asp-Ala-B5-Asp-Asp-Ala-Ala-Phe-Val-S8-Phe-Ala-Gln-NH2

Each binder was assayed against T1, beta-catenin (assay: fluorescence polarization competition; full-length beta-catenin with 5FAM-TCF4(10-53) probe as competitor).
Procedure, shortened: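 Readings followed a light-protected 60-minute incubation at 20° C. Each read was done in duplicate. Curves were fit with a 1:1 binding model including hill slope, and stated concentrations are final.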
Ac-[αAllylPro]DL[B5(4)]DDAAFL[PyrS2″][Phe(2-Cl)][Bta]L-NH2 (staple 1-4, 4-11; also: staple isomer composition of later HPLC peak, stapled peptide) [I-1419] showed an EC50 of 0.152 µM.

What follows are binders tested against T2, full-length beta-Catenin (Uniprot ID …) (assay: fluorescence polarization competition; peptide titrated against 10 nM full-length beta-catenin + 10 nM 5FAM-TCF4(10-53)).
Method: (§1) The plate was incubated protected from light for 60 minutes at 20° C. prior to read. Reads were performed on a CLARIOstar plate reader (BMG Labtech) in duplicate, and data were fitted to a 1:1 binding model with hill slope using an in-house script. All provided concentrations are final concentrations.
For B1, the IC50 was 5 µM. B2 was tested, and the IC50 was 5 µM. Work on B3 yielded an IC50 of 5 µM. B4 was tested, and the IC50 was 5 µM. B5 gave an IC50 of 5 µM. In the case of B6, the IC50 is reported as 5 µM.

The binders below were run against T3, full-length beta-Catenin (Uniprot ID …) (assay: fluorescence polarization competition; full-length beta-catenin with 5FAM-TCF4(10-53) probe, peptide titrated).
Method: as §1
Binder B7 has an IC50 of 0.006 µM.

These binders were tested against T4, full-length beta-Catenin (Uniprot ID …) (assay: fluorescence polarization competition; peptide titrated against full-length beta-catenin + 5FAM-TCF4(10-53) probe).
Method: as §1
B8 was tested, and the EC50 was 5 µM. B9 showed an EC50 of 5 µM. Binder B10 has an EC50 of 5 µM. Binder B11 has an EC50 of 5 µM. For B12, the EC50 was 5 µM.

These binders were tested against T4, full-length beta-Catenin (Uniprot ID …) (assay: AlphaScreen competition; peptide titrated against full-length beta-catenin + biotin-TCF4(10-53)).
Method: as §1, with “Equal volume of the titrated peptide was added to the” for “The”, “and” for “was”, “incubated for 15 minutes at 20° C. Then 4 uL of donor and 4 uL acceptor beads at 10 ug/mL were added to the plate, for a 16 uL reaction pool and” for “incubated”
Binder B10 has an EC50 of 10 µM. Work on B11 yielded an EC50 of 8.2 µM. Binder B12 has an EC50 of 10 µM.
